Assay results taken from patent publication US20250304973, “HIGH-AFFINITY THROMBIN APTAMERS AND METHODS OF USE” (Ayass Bioscience LLC, published 2025).

Legend:
alpha-thrombin (native) = alpha-thrombin (native) (Homo sapiens, UniProt P00734;P00734 P00734:315-363,P00734:364-622); test: ELONA; 20 mM Tris pH 7.5, 150 mM NaCl, 0.1% BSA, 0.1% Tween 20, salmon sperm DNA, RT; competed by 100-fold unlabeled aptamer
thrombin = thrombin (Rattus norvegicus, UniProt P18292;P18292 P18292:311-359,P18292:360-617); test: BLI; biotinylated aptamer on streptavidin sensor, 1:1 fit; printed as "-0.6 nM"; conditions: label: 5' biotin (ELISA, BLI); predicted hairpin, possible G4
Source text: The biosensors were then exposed to varying concentrations of rat thrombin protein, allowing real-time monitoring of thrombin binding to the aptamer. Kinetic parameters were derived by fitting the BLI binding curves to a 1:1 binding model.

Q: How did the Kd (alpha-thrombin (native)) turn out when GCGGTGTTGCTGGGGTTGGGAGGTTGGAGGAAGCAATCGC (ssDNA) [AYA1809002] was run?
A: 10 nM

Q: And the Kd (thrombin)?
A: ~0.6 nM
